Source: the nanobody polyreactivity screen of Harvey et al. (2022)

Assay: yeast display, Sf9 membrane polyspecificity reagent, FACS + sequencing; frameworks hold sequencing errors
Method in brief: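 A synthetic nanobody library was expressed on Saccharomyces cerevisiae BJ5465 by galactose induction for 36–48 hours. The library was stained for 1 hour at 4 °C with 10% biotinylated, detergent-solubilized Sf9 membrane reagent and enriched with streptavidin microbeads before FACS. Low and high (top ~1%) gates were set on anti-HA fluorescence for expression and streptavidin fluorescence for reagent binding, and each polyreactivity label reflects the gate of origin.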

Row | Sequence | polyreactivity (PSR sort gate)
1 | QVQLVESGGGLVQAGGSLRLSCAASGIIFGRNARGWYRQAPGKEREMVAGITRRGARTYYADSVKGRFTISRDNAKNTVDLQMKSLKPEDTSVYYCATYSVQTDYGRGDYWGQGTKVTVSS | high polyreactivity
2 | QVQLVESGGGLVQAGGSLRLSCAASGIIFGTNAMGWSRQAPGKERELVAAITWSGGTYYADSVKGRFTISRDNAKITVYLQMNSQKPEDTAVYYCNAEWRVYPDLYDYWGQGTQVTVSS | low polyreactivity
3 | QVQLVESGGGLVQAGGSLRLSCAASGIIFGTNAMGWSRQAPGKERELVAGITSSGDSTYYADSVKGRFTISRDNAKNTVYLQMNSLKPEDTAVYYCARDIRTREFDSWGQGTQVTVSS | low polyreactivity
4 | QVQLVESGGGLVQAGGSLRLSCAASGIIFGTNAMGWYRQAPGKERELVAYITSGGSTYADSVKGRFKISRDNAKNTVYLQMNSLKPEDTAVYSCAAYVFWAFYEYDYWGQGTQVTVSS | low polyreactivity
5 | QVQLVESGGGLVQAGGSLRLSCAASGIIFGTYAMGWYRQAPGKERELVAVITSGAGRTYYADSVKGRFTISRDNAKNTVYLQMNSLKPEDTAVDYCAARVWYPRYDYWGQGTQVTVSS | high polyreactivity
6 | QVQLVESGGGLVQAGGSLRLSCAASGIIFGVYAMGWYREAPGKERELVAAISRSGDSTYYADSVKGRFTISRDNAKNTVYLQMNSLKPEDTAVYYCAAEWYFTFDYWGQGTQVTVSS | low polyreactivity
7 | QVQLVESGGGLVQAGGSLRLSCAASGIIFGVYAMGWYRQAPGKERELVAAISRSGDSTYYADSVKGRFTISRDNAKNTVYLQMNSLKPEDTAVYYCAAEWYITFDYWGQGTQVTVSS | low polyreactivity
8 | QVQLVESGGGLVQAGGSLRLSCAASGIIFGWYAMGWYRKAPGKERELVAAISSGGRTNYADSVKGRFTISRDNAKNTVYLQMNSLKPEDTAVYYCAAAYIRGSRRYDYWGQGTQVTVSS | high polyreactivity
9 | QVQLVESGGGLVQAGGSLRLSCAASGIIFGYYAMGWYRQAPGKERELVAAISWSGVSTYYADSVKGRFTISRDNAKNTVYLQMHSLKPEDTAVYYCAVGYVLTGVFQARFDYWGQGTQVTVSS | high polyreactivity
10 | QVQLVESGGGLVQAGGSLRLSCAASGIIFHFNAMGWYRQAPGKERELVAAITSGANTNYADSVKGRFTISRDNAKNTVYLQMNSLKPEDTSVYYCATRPHTDVRFVRTRRYDYWGQGTQVTVSS | low polyreactivity
11 | QVQLVESGGGLVQAGGSLRLSCAASGIIFHFNEMGWYRQAPGKERELVAAITSGGSTNYADSVKGRFTISRDNAKNTVYLQMNSLKPEDTAVYYCAARRGLRLFAYRHGYWGQGTQVTVSS | low polyreactivity
12 | QVQLVESGGGLVQAGGSLRLSCAASGIIFHKYAMGWYRQAPGKERELVAVITWRGGSTYYADSVKGRFTISRDHAKNTVYLQMNSLKPEDTAVYYCAARSQYRDRTGQYGYWGQGTQVTVSS | high polyreactivity
13 | QVQLVESGGGLVQAGGSLRLSCAASGIIFIGNAMGWYRQAPGKERELVAAIRSGTGTNYADSVKGRFTISRDNAKNTVYLQMNSLKPEDTAVYYSNADYNSGTYTQGTHEGDYWGQGTQVTVSS | low polyreactivity
14 | QVQLVESGGGLVQAGGSLRLSCAASGIIFISNAMGWSRQAPGTERELVADITSGGGSTYYADSVKGRFTISRDNAKNTVDLQMNSLKPDDTAVYYGAKRATGAYVFFFDSWGQGTQVTVSS | low polyreactivity
15 | QVQLVESGGGLVQAGGSLRLSCAASGIIFKEYALGGYRQAPGKERELVARITGSTGSTYADSVNGRFTISRDNAKNTVYLQMNSLKPEDTAVYYCAKYIGRGERLSDTRYGLDYWGQGTQVSVSS | low polyreactivity
16 | QVQLVESGGGLVQAGGSLRLSCAASGIIFKEYAMGGYRPAPGKERELVAAISGRGGSTYYADSVKGRFSISRDNAKNTVYLQMSSLKPEDTAVYYCNAVASWQRYDYWGQGTQVTVSS | high polyreactivity
17 | QVQLVESGGGLVQAGGSLRLSCAASGIIFKIYAMGWYRQAPGKERELVAAISKRGASTYYADSVKGRFTISRDNAKNTVYLQMNSLKPEDTAVYYCAAYRQGSAYDYWGQGTQVTVSS | high polyreactivity
18 | QVQLVESGGGLVQAGGSLRLSCAASGIIFKIYAMGWYRQAPGKERELVAAISWRGGSTYYADSVKGRFTISRDNAKNTVYLQMNSLKPEDTAVYYCAAARGYRTGYGYWGQGTQVTVSS | high polyreactivity
19 | QVQLVESGGGLVQAGGSLRLSCAASGIIFKYYAMGWYRPAPGKERELVAAITASGGRTYYADSVKGRFTISRDNAKNTVYLQMNSLKPEDTAVYYCAADSRSAYDYWGQGTQVTVSS | high polyreactivity
20 | QVQLVESGGGLVQAGGSLRLSCAASGIIFKYYAMGWYRQAPGKERELVAAITRSGGSTYYADSVKGRFTISRDNAKNTVYLQMYSLKPEDTAVYYCAAQTGYSYGITWQFTKYNYWGQGTQVTVSS | low polyreactivity
21 | QVQLVESGGGLVQAGGSLRLSCAASGIIFLDNVMRWYRQAPGKERELVAAISSSGGSTYYADSVKGRFTISRDNAKNTVYLQMNSLKPEDTAVYYCAAYFRRGFYYWGQGTQVTVSS | high polyreactivity
22 | QVQLVESGGGLVQAGGSLRLSCAASGIIFLENAMGWYRQAPGKEREFVAAISRSGGITYYADSVKGRFTISRDNAKNTVYLQMNSLKPEDTAVYYCAAVGRDRYRHSPQPLYDYWGQGTQVTVSS | low polyreactivity

Row | Sequence | polyreactivity (PSR sort gate)
23 | QVQLVESGGGLVQAGGSLRLSCAASGIIFLEYAMGWYRQAPGKERELVAAISSDDGSSTYYADSVKGRFTISRDNAKNTVYLKMNSLKPEDTAVYYCAAYGGGGYYYDYEYWGQGTQVTVSS | high polyreactivity
24 | QVQLVESGGGLVQAGGSLRLSCAASGIIFLGYARGWYRQAPGKERELVADIYSGVRTYYADSVKGRFTISRDNAKNTVYLQMNSLKPEDTAVYYCNATWTPYSSKQYYYWGQGTQVTVSS | low polyreactivity
25 | QVQLVESGGGLVQAGGSLRLSCAASGIIFLKYAMGWYRQAPGKERELVAAISRSGGGTYYADSVKGRFTISRDNAKNTVYLQMNSLKLEDTAVYYCAARGVDRQGYRFYYWGQGTQVTVSS | high polyreactivity
26 | QVQLVESGGGLVQAGGSLRLSCAASGIIFLNYVMGWYRQAPGKERELVAAITTSGASTYYADSVKGRFTISRDNAKNTVYLQMNSLKPEDTAVYYCAAVFRHARYRYDYWGLGTQVTVSS | high polyreactivity
27 | QVQLVESGGGLVQAGGSLRLSCAASGIIFLSYAMGWYRQAPGKERELVAAIRSRGDSTYYADSVKGRFTISRDNAKNTVYLQMNSLKPEDTAVYYCNARQRRYPYGYWGQGTQVTVSS | high polyreactivity
28 | QVQLVESGGGLVQAGGSLRLSCAASGIIFLYYAMGWYRQAPGKERELVAAISKSGGSTYYADSVKGRFTISRDNAKNTVYLQMNSLKPEDTAVYYCAARLWHLSYAGQGGDYWGQGTQVTVSS | low polyreactivity
29 | QVQLVESGGGLVQAGGSLRLSCAASGIIFNANTMLWYRQAPGKERELVAAITRGGSTNYADSEKGRFTISRDNAKNTVYLQMNSLKPEDTAVYYCAARTGYYCGSGGNRYISPYDYWGQGTQVTVSS | low polyreactivity
30 | QVQLVESGGGLVQAGGSLRLSCAASGIIFNSNAMGWYRQAPGKERELVAAISVSGGSTYYADSVKGRFTISRDNAKNTVYLQMNSLKPEDTAVYYCAAVFYYWSLRSYYWGQGTQVTVSS | high polyreactivity
31 | QVQLVESGGGLVQAGGSLRLSCAASGIIFPPYAMGWYRQAPWKEREFVAGITSSGGTYYADSVKGRFTISRDNAKNTVYLQMNSLKPEDTAVYYCAARQGNLRRGVRWFNYWGQGTQVTVSS | high polyreactivity
32 | QVQLVESGGGLVQAGGSLRLSCAASGIIFPPYTMGWYRQAPGKERELVAGITGNSGTTYYADSVKGRFTISRDNAKNTVYLQMNSLKPEDTAVYYCAVRDVYHRYWGQGTQVTVSS | high polyreactivity
33 | QVQLVESGGGLVQAGGSLRLSCAASGIIFPRNAMGWSREAPGKERELVAAITSGDTTNYADSVKGRFTISRDNAKKTVYLQMNSQKPADTAVYYCAADQFQGNSGFEYWGQGTQVTVSS | low polyreactivity
34 | QVQLVESGGGLVQAGGSLRLSCAASGIIFPWYTMGWYRQAPGKERELVAAISSGGRTNYADSVKGRFTISRDNAKNTVYLQMNSLKPEDTAVYYCAAKFYRDRDWGQGTQVTVSS | high polyreactivity
35 | QVQLVESGGGLVQAGGSLRLSCAASGIIFPYNTMGWYRQAPGKERELVASIDDGGSTNYADSVKGRFTISRDNAKNTVYLQMNSLKPEDTAVYYCAADPYWFFPHYDSWGQGTQVTVSS | low polyreactivity
36 | QVQLVESGGGLVQAGGSLRLSCAASGIIFPYYAMGWYIQAPGKERELVASISSRGSSTYYADSVKGRFTISRDNAKNTVFLQMNSLKPEDTAVYYSAAQNFYRYYWGQGTQVTVSS | high polyreactivity
37 | QVQLVESGGGLVQAGGSLRLSCAASGIIFPYYAMGWYRQAPGKERELVAGISSSGGITYADSVKGRFTISRDNAKNTVYLQMNSLKPEDTAVYYCNAEYQWLEYDFWGQGTQVTVSS | low polyreactivity
38 | QVQLVESGGGLVQAGGSLRLSCAASGIIFQFYAMGWYRPAPGKERELVAAISRSGGITHYADSVKGRFTISRDNAKNTVYLQMNSLKPEDTAVYYCNAVQPARFVGGFGTGVDYWGQGTQVTVSS | high polyreactivity
39 | QVQLVESGGGLVQAGGSLRLSCAASGIIFQPYTMGWYRQAPGKERELVAAISYSGGSTYYADSVKGRFTISRDNAKNTVYLQMNSLKPEDTAVYYCAARRYPYSGTHRGFYYWGQGTQVTVSS | high polyreactivity
40 | QVQLVESGGGLVQAGGSLRLSCAASGIIFQRNAMGWYRQAPGKERELVAAISASGGSTNYADSVKGRFTISRDNAKNTVSLQMNSLKPEDTAVYYCAAEDDGDFDYWGQGTQVTVSS | low polyreactivity
41 | QVQLVESGGGLVQAGGSLRLSCAASGIIFQRNDIGWYREAPGKERELVANIRDGGITYADSVKGRFTISRDNAKNTVYLQMNSLKPDDTAVYYCALEDTSPGYGDQSSNAAYYYWGQGTQVTVSS | low polyreactivity
42 | QVQLVESGGGLVQAGGSLRLSCAASGIIFQTYAMGWYRQAPGKERELVAAISRSGGSTYYADSVKGRFTISRDNAKNTVYLQMNSLKPEDTAVYYCAAYGYHVNWLKGNYWGQGTQVTVSS | high polyreactivity
43 | QVQLVESGGGLVQAGGSLRLSCAASGIIFQVYAMGWYRQAPGKERELVAAISDDGSTNYADSVQGRFTISRDNAKNTGYLQMNSLKPEDTAVYYCAKDSWGRLYYRYDYWGQGTQVTVSS | low polyreactivity
